How the values were obtained:
murine heparanase = target: T1, murine heparanase (Mus musculus, UniProt Q6YGZ1); test: Cross species capture ELISA, murine heparanase; assay type: binding; conditions: min 0.06, max 0.9 OD units
T1 construct: made in house; host or cells: Hek293 cells (conditioned medium), inferred for the ELISA
T1 sequence (Q6YGZ1 28-535): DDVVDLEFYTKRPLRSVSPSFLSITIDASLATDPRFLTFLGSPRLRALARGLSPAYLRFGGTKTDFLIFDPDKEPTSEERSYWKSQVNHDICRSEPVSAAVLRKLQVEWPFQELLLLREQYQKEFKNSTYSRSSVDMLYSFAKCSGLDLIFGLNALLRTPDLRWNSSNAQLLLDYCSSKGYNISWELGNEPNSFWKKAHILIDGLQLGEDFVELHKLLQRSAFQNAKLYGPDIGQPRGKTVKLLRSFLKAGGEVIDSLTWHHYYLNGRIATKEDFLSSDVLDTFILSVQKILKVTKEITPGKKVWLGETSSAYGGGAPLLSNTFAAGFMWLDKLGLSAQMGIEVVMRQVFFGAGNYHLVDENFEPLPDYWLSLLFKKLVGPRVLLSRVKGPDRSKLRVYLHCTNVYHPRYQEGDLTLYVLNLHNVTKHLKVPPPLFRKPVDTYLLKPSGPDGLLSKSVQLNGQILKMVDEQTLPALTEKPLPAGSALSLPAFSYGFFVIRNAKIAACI
Protocol: Initially, cross species binding to human, murine and cynomolgus heparanase was determined in an ELISA assay in which heparanase was captured onto plates using a rabbit anti-heparanase antibody (Raybiotech, Cat. IP-14-155). Exhaustive supernatants were added to the plates at a final dilution of 1:5 and bound antibody detected with a rabbit anti-human IgG Fc.

Recombinant Hpa1 = target: T2, Recombinant Hpa1 (Homo sapiens, UniProt Q9Y251); test: Medium resolution Biacore affinity; assay type: binding; conditions: purified antibody captured on CM4 chip; Hpa1 1 nM and 10 nM; 25° C.
T2 construct: Heparanase 8 and 50 kDa sub-units were cloned into pacGP67 as Sma 1-EcoR1 fragments; made in house; host or cells: Hi5 insect cells, baculovirus (pFastBac Dual)
T2 sequence (Q9Y251 158-543 limits assumed): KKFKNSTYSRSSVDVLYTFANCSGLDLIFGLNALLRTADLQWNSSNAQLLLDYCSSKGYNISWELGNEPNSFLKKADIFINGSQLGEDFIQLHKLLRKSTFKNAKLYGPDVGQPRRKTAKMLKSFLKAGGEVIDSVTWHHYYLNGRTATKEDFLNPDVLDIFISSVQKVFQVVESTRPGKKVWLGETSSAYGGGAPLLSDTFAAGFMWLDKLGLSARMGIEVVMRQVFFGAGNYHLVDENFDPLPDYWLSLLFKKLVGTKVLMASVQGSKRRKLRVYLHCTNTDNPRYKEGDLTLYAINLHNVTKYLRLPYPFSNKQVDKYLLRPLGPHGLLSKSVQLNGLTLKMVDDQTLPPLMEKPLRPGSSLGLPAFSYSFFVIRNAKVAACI
T2 sequence (Q9Y251 36-109 limits assumed): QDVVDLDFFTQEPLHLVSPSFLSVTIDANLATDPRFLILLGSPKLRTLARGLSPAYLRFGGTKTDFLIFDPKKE
Protocol: For medium resolution Biacore™ tests, cloned and purified antibodies were used. Each of three purified antibodies (10E9.1, 15A1.2, and 15A11.1) were captured onto a high-density goat anti-human antibody surface over a CM4 Biacore™ chip. Recombinant Hpa1 was diluted to the desired concentration (1 nM and 10 nM) in 10 mM HEPES, 150 mM NaCl, 0.005% tween-20, 0.1 mg per ml BSA pH7.4 (25° C.) immediately prior to injection. Data were fit globally to a 1:1 interaction model with a term for mass transport included. The resulting KD values are summarised below in Table 4.

[1] = test system: HT1080 human fibrosarcoma cells; test: FACS binding to cell surface heparanase, HT1080; assay type: cell-based; conditions: 5 or 10 μg per ml, 2 hrs at 37° C.
Protocol: Although heparanase is found as a secreted protein, a proportion of heparanase is found in conjunction with cell surface heparan sulfate. The ability of anti-human heparanase antibodies to bind to cell surface heparanase was tested in a FACS assay. HT1080 human fibrosarcoma cells, HCT116 human colorectal tumour cells and B16F10 AP3 murine melanoma cells were each seeded into 6-well plates and cultured for 48 hrs prior to the addition of anti-heparanase antibody 10E9.1 or control IgG2 antibody (Sigma Cat. No. 1504-1MG). Antibodies were added to the cells to a final concentration of 5 or 10 μg per ml and incubated with the cells for 2 hrs at 37° C. The cells were then washed with phosphate buffered saline (PBS) and harvested by incubation with trypsin. The cells were pelleted by centrifugation and resuspended in 0.5 ml PBS, 0.1% BSA containing 1/200 dilution of AlexaFluor 488 anti-human IgG. The cells were incubated for 1 hr at room temperature, washed with PBS/BSA, resuspended in PBS and analysed by FACS. […] The differences likely reflect a lower affinity for murine heparanase in addition to any differences in absolute heparanase expression.

B1: 10E9.1: fully human anti-heparanase monoclonal antibody, G2κ; VH SEQ ID NO 2, VL SEQ ID NO 4; ATCC PTA-9489 (antibody, listed as Homo Sapiens, V domains shown)
VH: QVQLVQSGAEVKKPGASVKVSCKVSGYSLTELSIHWVRQAPGKGLEWMGGFDPEDGEIIFAQKFQGRVTLTEDISLDTAYMEVSSLRSEDTAVYYCATEGHDSGDYVGYYYYGLDVWGQGTTVTVSS
VL: DIQMTQSPSSLSASVGDRVTITCRASQDIRNFLAWYQQKPGKLPKLLIYAASTLQSGVPSRFSGSGSGTDFTLTISSLQPEDVASYYCQSHNSVPFTFGPGTKVDIR
notes: fully human anti-heparanase monoclonal antibody, G2κ; ATCC PTA-9489
Murine heparanase
  Binding to heparanase Mouse: 0.49 OD units
Recombinant Hpa1
  ka: 2.06e+06 M⁻¹ s⁻¹
  kd: 0.000112 s⁻¹
[1]
  Binding to cells by FACS: bind extensively
